# From patent US20230105457A1, “Immunogenic Compounds For Treatment Of Adrenal Cancer” (ENTEROME S.A., priority 2019, published 2023)
# Like-named read-outs stand apart in the source and are kept apart here.
# Columns and labels:
# [1] = system: splenocytes of β/A2/DR3 mice; experiment: ELISPOT-IFNγ assay on splenocytes of vaccinated β/A2/DR3 mice (Example 2); format: in vivo, mouse; conditions: for Percentage of ConA-induced response (mean+/−SEM), ELISPOT-IFNγ: label = vaccination peptide
# Description: Briefly, 14 β/A2/DR3 mice were assigned randomly (based on mouse sex and age) to two experimental groups, each immunized with a specific vaccination peptide (vacc-pAg) combined to a common helper peptide (h-pAg) (as outlined in Table 7 below). The vacc-pAg were compared in couples (group 1 vs. group 2). Thereby, both native and optimized versions of a single peptide were compared in each wave.
# (§1) The animals were immunized on day 0 (d0) with a prime injection, and on d14 with a boost injection. Each mouse was injected s.c. at tail base with 100 μL of an oil-based emulsion that contained: • 100 μg of vacc-pAg (25 μL of 4 mg/mL stock per mouse); • 150 μg of h-pAg (15 μL of 10 mg/mL stock per mouse); • 10 μL of PBS to reach a total volume of 50 μL (per mouse); • Incomplete Freund's Adjuvant (IFA) added at 1:1 (v:v) ratio (50 μL per mouse).
# (§2) A separate emulsion was prepared for each vacc-pAg, as follows: IFA reagent was added to the vacc-pAg/h-pAg/PBS mixture in a 15 mL tube and mixed on vortex for repeated cycles of 1 min until forming a thick emulsion.
# (§3) Seven days after the boost injection (i.e. on d21), the animals were euthanized and the spleen was harvested. Splenocytes were prepared by mechanical disruption of the organ followed by 70 μm-filtering and Ficoll density gradient purification.
# (§4) The splenocytes were immediately used in an ELISPOT-IFNγ assay (Table 8). Experimental conditions were repeated in quadruplets, using 2*105 total splenocytes per well, and were cultured in presence of vacc-pAg (10 μM), Concanavalin A (ConA, 2.5 μg/mL) or medium-only to assess for their capacity to secrete IFNγ. The commercial ELISPOT-IFNγ kit (Diaclone Kit Mujrine IFNγ ELISpot) was used following the manufacturer's instructions, and the assay was performed after about 16 h of incubation.
# Spots were counted on a Grand ImmunoSpot® S6 Ultimate UV Image Analyzer interfaced to the ImmunoSpot 5.4 software (CTL-Europe). Data plotting and statistical analysis were performed with the Prism-5 software (GraphPad Software Inc.).
# The cell suspensions were also analyzed by flow cytometry, for T cell counts normalization. The monoclonal antibody cocktail (data not shown) was applied on the purified leucocytes in presence of Fc-block reagents targeting murine (1:10 diluted ‘anti-mCD16/CD32 CF11 clone’—internal source) Fc receptors. Incubations were performed in 96-well plates, in the dark and at 4° C. for 15-20 minutes. The cells were washed by centrifugation after staining to remove the excess of monoclonal antibody cocktail, and were re-suspended in PBS for data acquisition.
# The data were then normalized as a number of specific spots (the average counts obtained in the ‘medium only’ condition being subtracted) per 10^6 total T cells.
# (§5) The individual average values (obtained from the quadruplicates) were next used to plot the group average values (see FIG. 3A). As the functional capacity of T cells might vary from individual to individual, the data were also expressed as the percentage of the ConA response per individual (see FIG. 3B).
# HLA-A*0201 = HLA-A*0201 (Homo sapiens, UniProt P04439, D140Y/D185E/D98H/E176V/E277Q/G131W/G231S/I119V/I121R/I166T/I218V/L300P/L318F/N151K/N90K/P208A/P217A/Q86G/Q94H/R138H/R169H/T345S); conditions: for Mean fluorescence intensity: T2 cells
# Procedure: T2 cells (2·10^5 cells per well) are incubated with decreasing concentrations of peptides from 100 μM to 0.1 μM in a AIMV medium supplemented with 100 ng/μl of human P2m at 37° C. for 16 hours.
# The analysis is achieved by FACS (Guava Easy Cyte).
# The relative affinity is then determined as follows:
# Each peptide is solubilized by taking into account the amino acid composition. […] Other peptides are resuspended in water or PBS pH7.4.
# T2 cells (2·10^5 cells per well) were incubated with decreasing concentrations of peptides from 100 μM to 0.1 μM in a AIMV medium supplemented with 100 ng/μl of human P2m at 37° C. for 16 hours.
# The analysis was achieved by FACS (Guava Easy Cyte).
# [2] = system: splenocytes of HLA-A2 (CB6F1-Tg(HLA-A*0201/H2-K^b)A*0201) mice; experiment: ELISPOT-IFNγ assay on splenocytes of vaccinated HLA-A2 humanized mice (Example 9); format: in vivo, mouse; conditions: 100 μg s.c. d0 and d14 with T13L helper and IFA; compared to the respective human reference epitopes
# Description: Briefly, HLA-A2 humanized mice (HLA-A2 (CB6F1-Tg(HLA-A*0201/H2-K^b)A*0201) were assigned randomly (based on mouse sex and age) to experimental groups, wherein each group was immunized with a specific vaccination peptide (vacc-pAg) combined to a common helper peptide (h-pAg T13L; sequence: […]; SEQ ID NO: 280; Bhasin M, Singh H, Raghava G P (2003) MHCBN: a comprehensive database of MHC binding and non-binding peptides. Bioinformatics 19: 665-666) (as outlined in Table 15 below). The vacc-pAg were compared in couples (group 1 vs. group 2, group 1 vs. group 3; group 1 vs. group 4; group 5 vs. group 6; group 7 vs. group 8). Thereby, both native and optimized versions of a single peptide were compared in each wave.
# as §1, §2, §3
# as §4, with “16).” for “8).”, “triplicates,” for “quadruplets,”, “lonomycin (0.1 μM) plus PMA (1 μM)” for “Concanavalin A (ConA, 2.5 μg/mL)”, “19” for “16”
# Spots were counted on a CTL ELISpot reader. Data plotting and statistical analysis were performed with the Prism-5 software (GraphPad Software Inc.).
# The data were then normalized as a number of specific spots (the average counts obtained in the ‘medium only’ condition being subtracted) per 50*103 total T cells.
# as §5, with “triplicates)” for “quadruplicates)”, “values.” for “values (see FIG. 3A).”, “ionomycin plus PMA” for “ConA”, “11).” for “3B).”
# [3] = system: U87 cells (expressing IL13RA2); experiment: In vitro cytotoxicity of T cells from immunized HHD mice against U87 cells (Example 4); format: cell-based; conditions: CD3+ T cells of mice immunized with the peptide, 72 h co-culture with U87-MG
# Procedure: Briefly, […] from mice immunized with IL13RA2-H or IL13RA2-B were used. These cells were obtained after sorting of splenocyte from immunized mice and were placed on top of U87 cells (expressing IL13RA2).
# In more detail, CD3+ T cells were purified from splenocytes of HHD mice immunized with IL13RA2-H ([…], SEQ ID No 263) or IL13RA2-B ([…]). To this end, B6 β2m^ko HHD/DR3 mice were injected s.c. at tail base with 100 μL of an oil-based emulsion containing vaccination peptide plus helper peptide plus CFA (complete Freund's adjuvant), at day 0 and day 14. On d21, i.e. seven days after the boost injection, the animals were euthanized and the spleen was harvested. Splenocytes were prepared by mechanical disruption of the organ. CD3+ purification was performed using the mouse total T cells isolation kit from Miltenyi biotec using the recommended procedure. Efficient purification of cells and viability was validated by cytometry using appropriate marker for viability, CD8, CD4, CD3, and CD45. […]
# 72 hours after co-culture of U87-MG cells and CD3+ T cells, all cells from the wells were harvested and specific U87-MG cell death was evaluated after immunostaining of CD45 negative cells with DAPI and fluorescent annexin V followed by cytometry analysis.
# [4] = target: T1, HLA-A*0201 molecule expressed on human tumor cell line T2 (human); experiment: T2 cell HLA-A2 stabilisation, FACS; ratio of 20% concentration to that of HIV pol 589-597 (lower = stronger)
# T1 construct: surface HLA-A2 read with anti-HLA-A2 antibody BB7.2-PE by FACS; also called HLA-A2
# [5] = target: T1, HLA-A*0201 molecule expressed on human …; experiment: as above; remark: listed apart in the source
# [6] = target: T1, HLA-A*0201 molecule expressed on human …; experiment: as above; remark: listed apart in the source
# [7] = target: T1, HLA-A*0201 molecule expressed on human …; experiment: T2 cell HLA-A2 stabilisation, FACS; peptide at 100 µM
# [8] = target: T1, HLA-A*0201 molecule expressed on human …; experiment: T2 cell HLA-A2 stabilisation, FACS; 20% of signal of HIV pol 589-597 at 100 µM
# [9] = target: T1, HLA-A*0201 molecule expressed on human …; experiment: T2 cell HLA-A2 stabilisation, FACS; peptide at 25 µM
# [10] = target: T1, HLA-A*0201 molecule expressed on human …; experiment: T2 cell HLA-A2 stabilisation, FACS; peptide at 3.125 µM
# [11] = target: T1, HLA-A*0201 molecule expressed on human …; experiment: T2 cell HLA-A2 stabilisation, FACS; peptide at 50 µM
# [12] = target: T1, HLA-A*0201 molecule expressed on human …; experiment: T2 cell HLA-A2 stabilisation, FACS; peptide at 1.5625 µM
# [13] = target: T1, HLA-A*0201 molecule expressed on human …; experiment: T2 cell HLA-A2 stabilisation, FACS; 20% of signal of HIV pol 589-597 at 100 µM; remark: listed apart in the source
# [14] = target: T1, HLA-A*0201 molecule expressed on human …; experiment: T2 cell HLA-A2 stabilisation, FACS; peptide at 6.25 µM
# [15] = target: T1, HLA-A*0201 molecule expressed on human …; experiment: T2 cell HLA-A2 stabilisation, FACS; 20% of signal of HIV pol 589-597 at 100 µM; remark: listed apart in the source
# [16] = target: T1, HLA-A*0201 molecule expressed on human …; experiment: T2 cell HLA-A2 stabilisation, FACS; ratio of 20% concentration to that of HIV pol 589-597 (lower = stronger); remark: listed apart in the source
molecule,measurement,setting,value
FLPFGFILV [IL13RA2-B],"Percentage of ConA-induced response (mean+/−SEM), ELISPOT-IFNγ",[1]; ex vivo restimulation with IL13RA2-B pAg (10 μM),56.3%+/−18.1
same,"Percentage of ConA-induced response (mean+/−SEM), ELISPOT-IFNγ",[1]; ex vivo restimulation with IL13RA2-H pAg (10 μM),32.3%+/−11.8
same,T cell responses in the ELISPOT-IFNγ assay (in words),"[1]; vaccination 100 μg s.c. d0 and d14 with HHD-DR3 helper and IFA, compared to IL13RA2-H-vaccinated animals",improved T cell responses
same,Concentration of peptide that induces 20% of HLA-A2 expression,"HLA-A*0201; T2 cell line, HLA-A*0201, Example 13, protocol as in Example 3",1.9 µM
same,Concentration that induces 20% of expression of the HLA-A*0201,HLA-A*0201; T2 cells (Example 1),4.4 µM
same,Mean fluorescence intensity,HLA-A*0201; peptide at 0.1 μM (Example 1),9.9
same,Mean fluorescence intensity,HLA-A*0201; peptide at 1 μM (Example 1),12.18
same,Mean fluorescence intensity,HLA-A*0201; peptide at 100 μM (Example 1),112.03
same,Concentration of peptide that induces 20% of HLA-A2 expression,"HLA-A*0201; Table 12, Example 7",2.9 µM
same,Concentration of peptide that induces 20% of HLA-A2 expression,"HLA-A*0201; Table 14, Example 8",2.9 µM
same,T cell responses in the ELISPOT-IFNγ assay (in words),[2],induced improved T cell responses
same,U87 cell lysis (in words),[3],U87 cell lysis was observed
FLPFGFILPV (also called IL13R2A-L) [IL13RA2-L],In vitro binding affinity (relative affinity),[4],0.3
same,In vitro binding affinity (relative affinity),[5],0.3
same,In vitro binding affinity (relative affinity),[6],0.53
FLPFGFILV (also called candidate peptide) [IL13RA2-B],mean relative fluorescence intensity,[7],128 relative (HIV peptide = 100)
same,Concentration of peptide that induces 20% of HLA-A2 expression,[8],1.9 µM
same,mean relative fluorescence intensity,[9],86.5 relative (HIV peptide = 100)
same,mean relative fluorescence intensity,[10],15.7 relative (HIV peptide = 100)
same,mean relative fluorescence intensity,[11],113 relative (HIV peptide = 100)
same,mean relative fluorescence intensity,[12],14.8 relative (HIV peptide = 100)
same,In vitro binding affinity (relative affinity),[4],0.3
same,Concentration of peptide that induces 20% of HLA-A2 expression,[13],2.9 µM
same,mean relative fluorescence intensity,[14],40.8 relative (HIV peptide = 100)
same,Concentration of peptide that induces 20% of HLA-A2 expression,[15],2.9 µM
same,In vitro binding affinity (relative affinity),[5],0.3
same,In vitro binding affinity (relative affinity),[6],2.48
same,In vitro binding affinity (relative affinity),[16],0.49
ALPFGFILV (also called comparative peptide of Eguchi et al. 2006) [1A9V],Concentration of peptide that induces 20% of HLA-A2 expression,[8],20.9 µM
same,Concentration of peptide that induces 20% of HLA-A2 expression,[15],36.5 µM
same,In vitro binding affinity (relative affinity),[5],3.6
same,In vitro binding affinity (relative affinity),[6],27.7
same,In vitro binding affinity (relative affinity),[16],3.06
